Assay results as given in patent US20060013804A1, “Modulation of stem cell differentiation by modulation of caspase-3 activity” (Ottawa Health Research Institute, priority 2002, published 2006).
Entries after “also recorded” stand apart in the source; their conditions may differ.

Key:
neurospheres = assay: Cytotoxicity observed in neurosphere cultures; assay type: cell-based, mouse; settings: neurosphere experiments
Text: Under growth conditions, neurospheres readily stained for nestin, an intermediate protein highly expressed in early neuronal progenitors (Lendahl et al., Cell 60, 585-595). […] Subsequently, we compared neural differentiation without caspase 3 activity. […] Increased expression of GFAP, MBP are characteristic with the early formation of astrocytes and oligodendrocytes respectively (Gage, F. H. (2000) Science 287, 1433-1438).

Histone H1 = Histone H1 targeted kinase assay of MST1 constructs immunoprecipitated from transfected COS1 cells; assay type: biochemical; settings: transiently transfected COS1 cells, Histone H1 substrate
Method: (§1) Transfection Assays. The complete open reading frame of the human MST1, [Genbank Accession No. gi|1117790] obtained from a clone bank collection (Stratagene) was inserted into the expression vector pcDNA3.1 Myc/His (Invitrogen). A constitutively active MST1 (MST1-act) was prepared as previously described (Megeney, L. A., et al., (1996) Genes Dev 10, 1173-1183). The integrity of both MST1 and MST1-act were confirmed by sequencing. The kinase activity of these protein products were verified by transient transfection into COS1 cells followed by immunoprecipitation and kinase analysis using Histone-H1 as the target substrate (see below). Transfections with MST1 and MST1-act into both COS1 and primary myoblasts were performed using Lipofectamine Plus (Gibco) as directed in the manufacturer's instructions.
Co-immunoprecipitation and kinase analyses. Immunoprecipitation was performed using 150-200 μg of total protein, incubated in modified-RIPA buffer at 4° C. for 16 h containing the respective antibody. Samples were mixed for 1 h with 25 μl of a 50% Protein G (Pharmacia). For co-immunoprecipitation, immunoprecipitates were washed in modified-RIPA buffer, boiled in 1× Lamelli buffer, separated by SDS-PAGE and Western blotted for immunoblot analyses. […] Following SDS-PAGE, gels were dried and phospho-incorporation was analyzed by autoradiography. […]

[1] = test system: caspase-3-/- primary myoblasts; assay: Transfection of MST1 constructs into caspase-3-/- primary myoblasts (rescue of myogenesis); assay type: cell-based, mouse
Method: (§2) Myoblast culture. C2C12 cell (mouse skeletal muscle myoblast) cultures were grown and maintained in DMEM containing 10% FBS with 50 units/ml penicillin and 50 μg/ml streptomycin (Gibco). Differentiation was induced by incubating cultures in DMEM containing only a low serum concentration (2% horse serum). Caspase activity was measured using a Caspase-3 and Caspase-8 Fluorometric Assay Kit (Pharmingen). […] Control cells were treated with an equivalent amount of vehicle (DMSO). Primary myoblast cells were derived from skeletal muscles of the hind- and fore-limbs from 1-2 day old C57BL/6 wild-type, caspase-3 heterozygous and caspase-3 null mice (Frasch, S. C., et al., (1998) J. Biol. Chem. 273, 8389-8397; Kuida, K., et al., (1996) Nature 384, 368-372) (n=5 for each genotype) as described (Cregan, S. P. et al., (1999) J. Neuro. 19, 7860-7869.). To induce differentiation, primary myoblast cultures were incubated in DMEM containing 5% horse serum.
as §1
To delineate the effect of MST1 on myogenesis, wild-type MST1, an activated MST1 (aa 1-330, MST1-act) or plasmid alone was transiently transfected into primary myoblasts derived from caspase-3^−/− mice. The activity of these constructs was verified by Histone H1 targeted kinase analysis of MST1 from transiently transfected COS1 cells (FIG. 5A).

[2] = test system: wildtype primary myoblasts; assay: Transfection of MST1-act into wildtype primary myoblasts; assay type: cell-based, mouse
Method: as §2
Transfection Assays. The complete open reading frame of the human MST1, [Genbank Accession No. gi|1117790] obtained from a clone bank collection (Stratagene) was inserted into the expression vector pcDNA3.1 Myc/His (Invitrogen). A constitutively active MST1 (MST1-act) was prepared as previously described (Megeney, L. A., et al., (1996) Genes Dev 10, 1173-1183). The integrity of both MST1 and MST1-act were confirmed by sequencing. […]

## CC(=O)N[C@@H](CC(=O)O)C(=O)N[C@@H](CCC(=O)O)C(=O)N[C@H](C(=O)N[C@H](C=O)CC(=O)O)C(C)C [Ac-DEVD-CHO]
neurospheres
  cytotoxicity: high levels of cytotoxicity

B1: MST1-act: constitutively active MST1 (aa 1-330) expressed from pcDNA3.1 Myc/His by transfection (protein, UniProt Q13043 1-330, looked up, fragment)
chain: METVQLRNPPRRQLKKLDEDSLTKQPEEVFDVLEKLGEGSYGSVYKAIHKETGQIVAIKQVPVESDLQEIIKEISIMQQCDSPHVVKYYGSYFKNTDLWIVMEYCGAGSVSDIIRLRNKTLTEDEIATILQSTLKGLEYLHFMRKIHRDIKAGNILLNTEGHAKLADFGVAGQLTDTMAKRNTVIGTPFWMAPEVIQEIGYNCVADIWSLGITAIEMAEGKPPYADIHPMRAIFMIPTNPPPTFRKPELWSDNFTDFVKQCLVKSPEQRATATQLLQHPFVRSAKGVSILRDLINEAMDVKLKRQESQQREVDQDDEENSEEDEMDSGTM
modifications: Myc/His tag
Histone H1
  kinase activity of construct: high level of kinase activity
[1]; caspase-3 knockout myoblasts containing construct
  efficiency of differentiation: > 85%
[1]; transient transfection, primary caspase-3-/- myoblasts
  myotube formation in caspase-3-/- myoblasts: elongated and fused with neighbouring cells to form multinucleated myotubes; also recorded: differentiated to form fused, multinucleated myotubes
[2]; 2 days in differentiation media, vs untransfected wildtype
  myogenesis in wildtype myoblasts: comparable to wildtype cultures after 4-5 days of differentiation; also recorded: accelerated myogenesis after 2 days
[2]; differentiation time course >4 days
  apoptosis on protracted differentiation: enhanced apoptosis
